Laboratory results from the supplement of paper PMC10567573.

B1: SOAT1 (parent)
chain: KSAAMLAVFAVSAVVHEYALAVCL
B2: FBXO3 (parent)
chain: GGFPIIRDQIFRYVHDPECVATTG

Variants of: B1
Experiment: protein stability index of a GFP-peptide fusion (GPS, HEK-293T) (PSI 1-6); higher = more stable
Conditions: c terminus: a fixed tail appended
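Also: lentivirally expressed fusions sorted by FACS into six bins by GFP to DsRed ratio, PSI derived from sequencing read proportions per bin multiplied by bin number.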

Protein stability index, by site and new letter:
A7: Y 3.49, R 3.98, W 2.69, D 2.99, V 2.07, P 2.58, G 4.09, Q 2.59, H 2.91, M 1.54, T 3.23, I 1.49, L 3.14
A3: Y 2.83, G 2.25, P 3.72, N 2.7, W 1.96, H 3.8, S 2.25, T 2.06, I 3.19, Q 3.47, D 2.23, K 2.88, M 3.72, V 1.5
A4: V 3.08, Y 2.44, H 3.89, W 1.72, K 2.98, L 1.85, M 2.94, I 1.5, D 2.45, T 3.43, N 2.2, G 2.92
K1: F 2.89, V 1.84, N 1.73, D 4.34, S 5.65, E 3.54, T 4.59, W 3.4, C 1.84, G 4.12, Q 3.7, R 3.37, A 3.09, M 2.64, H 2.28
S2: Y 3.58, L 2.66, C 2.54, R 2.91, E 3.57, T 3.26, I 2.12, M 2.99, N 2.09, P 2.97
M5: D 3.48, C 3.11, R 4.56, L 3.74, N 2.5, T 3.55, W 2.56, E 3.88, A 2.63, G 3.1, P 3.6, Q 3.61, S 4.27, F 2.22
V8: H 3.18, D 2.77, F 4.29, N 3.98, I 1.62, P 3.28, K 2.31, C 2.43, S 3.28, A 2.89
L6: R 2.02, F 2.21, P 3.78, M 4.28, G 2.94, I 3.09, Q 2.68, N 3.55, E 2.25, H 2.73, K 2.46, C 3.42, D 2.74

Variants of: B2
Experiment: as above
Conditions: c terminus: a fixed tail appended

Protein stability index of substitutions, site by site:
C19: R 1.79, G 1.73, N 1.74, E 2.47, Q 1.94, H 1.57, S 1.9, P 1.94, I 1.55, W 2.15, Y 1.81, M 2.31, F 1.57, L 1.72, D 2.49, K 1.78, A 1.6, V 2.08, T 2.09
D16: S 2.2, I 2.06, V 2.05, F 1.4, W 2.72, T 2.37, N 1.8, G 1.93, K 2.3, Y 2.26, C 1.94, Q 2.25, P 2.47, L 1.75, R 1.5, M 1.88, A 1.86, E 2.56, H 1.46
R12: Y 1.64, W 1.58, S 2.89, Q 2.79, V 1.22, T 2.21
E18: N 1.8, V 1.7, L 1.58, H 1.99, C 2.04, R 1.69, A 2.61, I 1.92, K 2.38, F 1.88, Y 2.52, M 1.79, W 1.38, S 1.57, P 2.1, G 1.71, T 1.98, D 1.68, Q 1.28
V20: W 1.78, G 2.08, H 2.01, T 1.68, P 2.23, I 2.19, A 2.24, E 2.22, F 1.8, L 1.81, M 1.79, S 2.32, Y 1.9, K 1.27, D 1.45, R 1.63, N 2.49, C 2.84, Q 2.04
A21: N 1.5, D 1.06, C 1.39, H 2.77, I 1.5, T 1.69, L 1.45, S 1.93, F 1.64, R 1.82, Q 2.05, Y 2.49, G 2, M 2.42, K 1.62, V 1.36, E 1.55, P 1.86, W 1.7
G24: R 2.22, W 1.61, Y 1.99, D 2.22, K 1.96, V 1.69, N 2.31, A 1.83, L 1.96, Q 2.78, I 1.5, S 1.81, H 2.25, F 1.93, T 2.49, P 1.82, M 1.33, C 1.7, E 2.22
T22: Q 1.76, S 1.63, C 1.72, V 1.67, R 2.56, Y 1.88, I 2.26, N 2.61, P 2.23, K 1.64, A 1.74, D 2.25, L 1.83, F 1.67, M 1.53, G 1.66, W 1.84, H 1.92, E 2.28
Y13: H 2.28, Q 3.65, T 3.34, A 3.44, G 3.18, P 3.84, D 3.85, F 1.75, M 2.88, V 2.8, W 2.18, R 3.22, S 3.62, L 2.51, E 3.96, N 3.58, I 2.39, K 2.79, C 2.32
V14: C 1.93, N 2.92, Y 2.9, L 2.28, F 1.92, M 2.42, R 2.94, K 2.83, E 3.51, I 2.57, G 2.78, W 1.94, A 2.12, T 2.5, P 3.32, D 3.78, Q 3.11, H 2.28, S 2.74
T23: M 1.73, A 1.8, S 1.59, P 1.71, N 2.13, V 1.61, I 1.89, Q 1.96, C 1.91, L 1.57, F 2.25, E 2.09, R 1.64, G 1.12, K 2.03, Y 1.61, D 1.66, H 1.89
P17: D 2.91, S 2.93, L 1.81, Q 1.97, R 1.49, Y 1.64, M 2.1, C 1.83, E 2.34, V 1.46, N 2.61, K 2.47, F 2.01, G 2.11, W 2.01, A 1.84, H 1.83, T 2.42, I 1.43
H15: T 2.28, W 1.85, I 1.62, L 1.94, Y 1.74, G 1.78, C 1.97, N 1.84, R 1.68, D 2.41, A 1.95, K 2.05, V 2.58, M 1.49, S 1.5, P 2.27, E 2.85, F 1.85, Q 2.02
